Test: yeast display, Sf9 membrane polyspecificity reagent, FACS + sequencing; frameworks hold sequencing errors
Outline: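 Using colony PCR, genes from sorted yeast display clones were amplified, then sequenced on MiSeq at 2 × 250 and filtered by CDR length. The clones had been stained with 10% biotinylated, detergent-solubilized Sf9 membrane reagent for 1 hour at 4 °C and sorted by FACS into low and high (top ~1%) gates on anti-HA and streptavidin fluorescence. Polyreactivity labels come from the gate of origin.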

Sequence | polyreactivity (PSR sort gate)
QVQLVESGGGLVQAGGSLRLSCAASGFTFRYYAMGWYRQAPGKERELVAAITNVGSTNYADSVKGRFTMSRDNAKHTVYLQMNSLKPEDTAVYYCNARDYYSYDYWGQGTQVTVST | high polyreactivity
QVQLVESGGGLVQAGGSLRLSCAASGSIFFYNAMGWYRQAPGKERELVAAISRGGSTYYADSVKGRFTISRDNAKNTVYLQMNSLKPEDTAVYYCAVQRRRNSNVLFDYWGQGTQVTVSS | high polyreactivity
QVQLVESGGGLVQAGGRLRLSCAASGIIFRGNPMGRYRQAPGKERELVAAIARRGGRTYYADSVKGRFTISRDNAKNTVYLQMNCLKAEDTAVYFCAAGELGDYWGQGTQVTVSS | high polyreactivity
QVQLVESGGGLVQAGGSLRLSCAASGYVYVMGWYRQAPGKERELVAAISKNGGSTYYADSVKGRFTISRYNAKNTVYLQMNSLKPEDTAVYYCAAVSYHKTEYDYWGQGTQVTVSS | high polyreactivity
QVQLVESGGGLVQAGGSLRLSCASSGSTFTRYAMGWYRQAPGKERELVAAINSSGGRTYYADSVKGRFTISRDNAKNTVYLQMNSLKPEDTAVYYCAATRGRYREDEDYWGQGTQVTVSS | high polyreactivity
QVQLVESGGGLVQAGGSLRLSCAASGRTFSHNAMGWYRQAPGKERELVAAISRGGGTNYADSVKGRFTISRDNAKNTVYLQMNSLKPEDTAVYYCAAAGYDSNGRYYYWGQGTQVTVSS | high polyreactivity
QVQLVESGGGLVQAGGSLRLSCAASGFTFRWNAMGWYRQAPGKERELVAAITNDDSTYYADSVKGRFTISRDNAKNTVYLQMNSLKPEDTAVYYCNARYGRYLDLDTGVALAGRGYWGQGTQVSVSS | low polyreactivity
QVQLVESGGGLVQAGGSLRLSCAASGRIFNRYAMGWYRQAPGKERELVAAITSGGSTYYADSVKGRFTISRDNAKNTVYLPMNSLKREDTAFYYCAALPRSNSYGYCGQGTQVTVSS | high polyreactivity
QVQLVESGGGLVQAGGSLRLSCAASGRIFTYYVMGWYRQAPWKERELVAAISYGGGSTYYADSVKGRFTISRDNAKNTVYLQMNSLKPEDTAGYYCAAEDGYRKMDYWGQGTQVTVSS | low polyreactivity
QVQLVESGGGLVQAGGSLRLSCAASGSIFQQYAMGWYRQAPGKERELVAAISWGDGSTYYADSVKGRFTISRDNAKNTVYLQMNSLKPEDTAVYYCNAYASAPLWSLEDDYWGQGTQVTVSS | low polyreactivity
QVQLVESGGGLVQAGGSLRLSCAASGRIFRAYTMGWYRQAPGKERELVAAISGSGTSTYYADSVKGRFTISRDNAKNTVYLQMNSLKPEDTAVYYCAAPSLSGYGYEYWGQGTQVTVSS | high polyreactivity
QVQLVESGGGLVQAGGSLRLSCAASGRTFYFYAMGWYRQAPGKERELVADIRGITGSTYYADSVKGRFTISRDNAKNTVYLQMNSLKPEDTAVYYCAADQYLGRAWRGRGYYWGQGTQVTVSS | high polyreactivity
QDQLVESGGGLVQAGGSLRLSCAASGIIFKYYAMGWYRQAPGKERELVAAITSGGSTNYADSVKGRFTISRDNAKNTVYLQMNSLKPEDTAVYYCAKRFYYRNRFDYWGHGTQVTVSS | low polyreactivity
QVQLVESGGGLVQAGGSLSLSCAASGFTFSVYVLGWYRQAPGKERELVAAISSGGDTTYADSVKGRFTISRDNAKNTVYLQMNSLNPVDTAVYYCAADPGYYSWGSSQDDYWGQGTQVTVSS | low polyreactivity
QVQLVESGGGLVQAGGSLRLSSAASGSTFWVNTMGWYRQAPGKERELVAGSTSNGGSTSYADSVKGRFTITRDNAKNTVYLQKNSLKPEDTAVYYCNADTYPDYWAYLYDYWGQGTQVTVSS | low polyreactivity
QVQLVESGGGLVQAGGSLRLSCAASGRIFQTNVMGWYRQAPGKEKELVAAISYRGGTTYYEDSVKARFTISRDNAQNTVYLPMYSLYPEDTAVYYCAALHYRIRRTGMDYWGQGTQVTVSS | low polyreactivity
QVQLEESGGGLVQAGGSLRLSCAASGSTFYSNAIGWYRQAPGKEREFVAAISLRGGSTYYADSVKGRFTISRDNAKNTVYLQMNSLKPEDTAVYYCAVDYYRRNGLKVYYRYDYWGQGTQVTVSS | high polyreactivity
QVQLVESGGGLVQAGGSLRLSCDASGSIFSKYAMGWYRQAPGKERELVAAISWSGTSTYYADSVKGRFTISRDNAKNTVYLQMNSLKPEDTAVYYCAASSPRSLSLLGYWGQGTQVTVSS | low polyreactivity
QVQRVESGGGLVKAGGRLRLSSAASGGTFKRYTMGWYRQAPGKETELVARIHYRTGSTYYADSVKGRFTISRDNAKNTVYLQMNSLKPEDTAVYYCAAREWYGFAFDYWGQGTQVTVSS | high polyreactivity
QVQLVESGGRLFQAGGSLRLSCAASGRIFYHNALGWYRQAPGKERELVADNASGGSTYYADSVKARFTISRDNAKNTVYLQMNSLKPEDTAVYYCAAEDEDSIFPFPYGAGSLFDFWGQGTQVTVSS | low polyreactivity
HVQLVESGGGLVQAGGSLRFSCAASGFIFTNYAMGWYRQAPGTERELVAAISFSGSSTYYADSVKGRFTISRDNAKNTVYLQMNSLNPEDTAVYYCAVDGVPSSFSHDYWGQGTKVTVSS | low polyreactivity
QVQLVESGGGLVQAGGSLRLSCAASGRTLAPYAMGWYRQAPGKERELVAISTSGGSTYYADSVKGRFTISRDNGKNTVYLQMNSRKPEDNAVYYCAADGNSTGVYWWFYGFDYWGQGTQVTVSS | low polyreactivity

Sequence | polyreactivity (PSR sort gate)
QVQLVEKRGGLVQAGGILRLSCAASGCILVGYAMGWSRQAPGKERELVAAINYSGGSTNYADSVKGRFTISLDNAKNTVYLQMISLKPEDTAVYYCAARSTARYGYWGQGTQVTVSS | low polyreactivity
QVQLVESGGGLVQAGGSLRLSCAASGRTFKHNAMGWYRQAPGKERELVAAINQSGSSTYYADSVKGRFTISRDNAKNTVYLQMNSLKPEDTAVYYCAAGVFFFTFDYWGQGTQVTVSS | low polyreactivity
QVQLVESGGGLVQAGGSLRLSCAASGSTFPSYAMGWYRQAPGKERELVAAISGSGTSTYYADSVKGRFTISRDNAKNTVYLQMNSRKPEDTAVYYCRAVWLSTYLGWGRDYWGQGTQVTVSS | high polyreactivity
QVQLVESGGGLVQAGGSLRLSCAASGSIFGRYTMGWYRQAPGKERELVAAINRSGGSTSYADSVKGRFTISRDNAKNTVYLQMNSLKPEDTAVYYCNRARSVPQFYGTYGFGYDYWGQGTQVTVSS | low polyreactivity
QVQLVESGGGLVQAGGSLRLSCAASGSIFYGYAMGWYRQAPGKERELVAAISGNGGSTYYADSVKGRFTISRDNAKNTVYLQMNRLKPEDTAVYYCAVEVYHYGFEYDYWGLGTQVTVSS | high polyreactivity
QVQHVESGGGLVQAGGSLRLSCDASGITFGHYTMGWYRQAHGKEREFVAAISWSGGSTYYADSVKGRFTISRDNAKNTVYLQMNSLKPEYTAVYYCNRVKPVIASYDSDYWGQGTQVTVSS | low polyreactivity
QVQLVESGGGLVQAGGSLRLNCAASGRIFGYNDMGWSRQAPGKERELVAAIDYSAGSTYYADSVKGRFTISRDNAKNTVNLQMNSLKPEDTAVYYCNTDSESSLLSSRGYWGQGTQVTVSS | low polyreactivity
QVQLVESGGGLVQAGGSLRLSCAASGFTFRQYAMGWYRQAPGKERELVAAISRSGSRTYYADSVKGRFTISRDNAKNTVYLQMNSLKPEDTAVYYCAARSYYNGKISRVGYWGQGTQVTVSS | high polyreactivity
QVQLVESGGGLVQAGGSLRLSCAASGFTFERYAMGSYRQAPGKERELVAAISSRGGGTYYADSVKGRFTISRENAKNTVFLQMNSLKPEDTAVYYCNRPYDYSYNYWGQGTQVTVSS | high polyreactivity
QVQLVESGGGLVQAGGSLRLSCAASGSTFRYYAMGWYRQAPGKERELVAAISGTGSTYYADSVKGRFTISRDNAKNTVSLQMNSLKPEDTAVYYCGAYPRGSQRYNYWGQGTQVTVSS | high polyreactivity
QVQLVESGGGLGQAGGSLRLSCAASGRIFGVYGMGWYRQAPGNDRELVAAITLAGRTNYADSVKGRFTISRDNAKNTVYLQMNSLKPQDTAVYYCAAEKRKLFQGVARYRYEDWGQGTQVTVSS | low polyreactivity
QVQLVESGGGLVQAGGSLRLSCAASGSTFNVYAMGWYRQAPGKERDLVAAIDSGDSTNYADSVKGRFTISRDNAKNTVYLEMNSLKPEDTAVYYCAVGYWDSRYRYDWPNSDYWGQGTQVTVSS | low polyreactivity
QVQLVESGGGLVQAGGSLRLSCAASGITFDLYAMGWFRQAPGKERELVAAISISSTSTYYADSVKGRFTISRDNAKNTVYLQMNSLKPEDTAVYYCNAVPSSKTFWFDYWGQGTQVTVSS | low polyreactivity
QDQHVESGGGLVQAGGSLRLICAASGFTFSHYPMGSYRQAPGKERELVAAINWSGGSTDYADSVKGRFTLSRDNAMNTVYLQMNSLKPVDTAVYYCNTVSYAYWGYYYWGQGTQVTLSS | high polyreactivity
QVQLVESGGGLVQAGGSLRLSCAASGFTFYRYAMGWYRQAPGKEREFVAVINIRGSTTYYADSVKGRFTISRDNAKNTVYLQMNSLKPEDTAVYYCARRYRGPYYSLPRRKEFDYWGQGTQVTVSS | high polyreactivity
QVQLVESVGGLVQAGGSHRLSCAASGLTFEWYTMGWYRQAPGKERELVAVITVSGSSTYYADSVKGRFTISRDNAKNTVYLQMNSLKPEDTAVYYCNADWSFYSYTLYDYWGQGTQVTVSS | low polyreactivity
QVQLVESGGGLVQAGGSLRLSCAASGGTSYAYTMGWYRQAPGKERELVAAISGSTGSTYYADSVKGRFTISRDNAKNTVYLQMNSLKPEDTAVYYCALLVGHNYWGQGTQVTVSS | low polyreactivity
QVQLVESGGGLVQAGGSLRLSCAASGITFRYYAMGWYRQAPGKERELVATISWSGGSTYYADSVKGRFTISRDNAKNTVYLQMNSLKPEDTAVYYCNADWYRSAWSKYDYWGQGTQVTVSS | high polyreactivity
QVQLVESGGGLVQAGGSLRLSCAAWSIFYLNAMGWNRQAPGKERELDAAISSAGSTYYADSVKGRFTISRDNAKNTFYLQMNSLKPEDTAVYYCAAYWYDSPGVTEIWYDYWGQGTQVTVSS | low polyreactivity
QVQLVESGGGLVQAGGSLRLSCAASGLIFYGYVMGWYRQAPGKERELVAGISRNSGSTYYADSVKGRFTISRDNAKITVYLQMKSLKPEDTAVYYCDALKFEAWAGEDYWGQGTQLTVSS | low polyreactivity
QVQNVDSGGGLVQAGGSLRLSCPPSGISYRGYAMGWYRQAPGKERELVAAISVRGASTYYAASVKGRFTISRDNAKYTVYLPMNSLKPEDTAVYYCGATRPSWRYNYWGQGTEVTVSS | high polyreactivity
